# Experimental data: patent US20200157248A1
# Where a chain is given by its changes, count along the chain named.
# B1: VHH clone 8G12 (VHH)
# VHH: EVQLVESGGGLVRAGGSLRLSCAASGSIFGTTNMGWYRQAPGTQRDLVATINNGGITNYADSVKGRFTISTDYTKNTVYLQMDRLKPEDTAVYYCNAEYHFRPPSWGQGTQVTVSS
# B2: VHH clone 8G11 (VHH)
# VHH: EVQLVESGGGLVQAGGSLRLSCAASGRTFDIYTMGWFRQVPGKEREFVADIGRAGGTTHYADSVKGRFAISRDNANDAVHLQMNSLKPEDTAVYYCATKVVPRAGRRLLDYDYWGQGTQVTVSS
# B3: VHH clone 8B03 (VHH)
# VHH: EVQLVESGGGLVQPGGSLRLSCRASGAIFSINHMGWYRQAPGKQRELVATITSGGSTNYADSVKGRFTISRDNAKNTVYLQMNSLKPEDTAVYSCNLDWTTGWGSRRDYWGQGTQVTVSS
# B4: VHH clone 8G1 (VHH)
# VHH: B3 VHH with E1Q
# B5: VHH clone 8GO9 (VHH)
# VHH: QVQLVESGGGLVQAGGSLRLSCAASGRTFSRYGMSWFRQAPGKEREFVATISRGGSSTNYADSTKGRFTVSRDNAKNTVVLQMNSLKPEDTAVYYCAADTNWPVGAYEYWGQGTQVTVSS
# Biological target: Fwt
# Assay: ELISA, VHH on coated antibody
row,Binder,ELISA OD [OD]
1,B1,0.063
2,B2,0.073
3,B3,0.069
4,B4,0.079
5,B5,0.114

# Biological target: mutC4/Cmut4
# Assay: ELISA, VHH on coated antibody
row,Binder,ELISA OD [OD]
1,B1,0.2
2,B2,0.054
3,B3,0.068
4,B4,0.068
5,B5,0.068

# Biological target: mutF4/Fmut4
# Assay: ELISA, VHH on coated antibody
row,Binder,ELISA OD [OD]
1,B1,0.159
2,B2,0.123
3,B3,0.221
4,B4,0.128
5,B5,0.153
